# Measurements as given in article PMC3662786, “miR172b Controls the Transition to Autotrophic Development Inhibited by ABA in Arabidopsis”.
# B1: mRAV1-A probe (dsDNA)
# DNA 1: CACCTGCGGTACGGTACGGTACGGTACGGTACGGTACACCTG
# DNA 2: CAGGTGTACCGTACCGTACCGTACCGTACCGTACCGCAGGTG
# B2: wRAV1-A probe (dsDNA)
# DNA 1: CACCTGCAACACAACACAACACAACACAACACAACACACCTG
# DNA 2: CAGGTGTGTTGTGTTGTGTTGTGTTGTGTTGTGTTGCAGGTG
# B3: ABI5 probe (dsDNA)
# DNA 1: TTAACAACTGCATCATATACACAACAATAAC
# DNA 2: GTTATTGTTGTGTATATGATGCAGTTGTTAA
# Tests used:
# Details in all cases: protein: recombinant; tags: MBP fusion; label: 3' biotin; blunt
# MBP-SNZ [1] = target: T1, MBP-SNZ (Arabidopsis thaliana, UniProt Q6PV67 1-325); assay: EMSA; poly(dI-dC), 5 mM MgCl2; LightShift EMSA binding buffer, 50 ng poly(dI-dC), 2.5% glycerol, 0.06% NP-40, 5 mM MgCl2, 19 mg BSA (so in the source), 28 ug protein, 5 pmol probe, 30 min room temperature; pH and salt not given
# T1 sequence (Q6PV67 whole entry): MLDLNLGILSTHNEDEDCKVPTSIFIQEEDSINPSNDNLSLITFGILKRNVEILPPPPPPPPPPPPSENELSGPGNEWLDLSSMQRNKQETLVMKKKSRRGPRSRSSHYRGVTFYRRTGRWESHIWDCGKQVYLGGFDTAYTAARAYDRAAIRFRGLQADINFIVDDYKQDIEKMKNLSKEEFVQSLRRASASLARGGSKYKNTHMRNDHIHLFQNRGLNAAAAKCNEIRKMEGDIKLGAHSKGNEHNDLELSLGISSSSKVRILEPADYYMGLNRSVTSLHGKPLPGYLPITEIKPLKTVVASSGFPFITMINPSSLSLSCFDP
# MBP-SNZ [2] = target: T1, MBP-SNZ; assay: EMSA; poly(dI-dC), 5 mM MgCl2; unlabeled RAV1-A probe reduced binding; LightShift EMSA binding buffer, 50 ng poly(dI-dC), 2.5% glycerol, 0.06% NP-40, 5 mM MgCl2, 19 mg BSA (so in the source), 28 ug protein, 5 pmol probe, 30 min room temperature; pH and salt not given
# MBP-SNZ [3] = target: T1, MBP-SNZ; assay: EMSA; poly(dI-dC), 5 mM MgCl2; unlabeled probe (50x, 250x) inhibited binding; LightShift EMSA binding buffer, 50 ng poly(dI-dC), 2.5% glycerol, 0.06% NP-40, 5 mM MgCl2, 19 mg BSA (so in the source), 28 ug protein, 5 pmol probe, 30 min room temperature; pH and salt not given
binder,measurement,setting,value
B1,binding result,MBP-SNZ [1],no binding
B2,binding result,MBP-SNZ [2],binds
B3,binding result,MBP-SNZ [3],binds
